As usually defined, the stoichiometry N is a count of units in the complex or per binding partner.

The chains are these.
B1: C-terminus of INTS3 (INTS3c), residues 560–905 and 915–995 (domain or fragment, human)
chain 1: TVVEEPVDITPYLDQLDESLRDKVLQLQKGSDTEAQCEVMQEIVDQVLEEDFDSEQLSVLASCLQELFKAHFRGEVLPEEITEESLEESVGKPLYLIFRNLCQMQEDNSSFSLLLDLLSELYQKQPKIGYHLLYYLRASKAAAGKMNLYESFAQATQLGDLHTCLMMDMKACQEDDVRLLCHLTPSIYTEFPDETLRSGELLNMIVAVIDSAQLQELVCHVMMGNLVMFRKDSVLNILIQSLDWETFEQYCAWQLFLAHNIPLETIIPILQHLKYKEHPEALSCLLLQLRREKPSEEMVKMVLSRPCHPDDQFTTSILRHWCMKHDELLAEHIKSLLIKNNSLPRK
chain 2: KLAQLTLEQILEHLDNLRLNLTNTKQNFFSQTPILQALQHVQASCDEAHKMKFSDLFSLAEEYEDSSTKPPKSRRKAALSS
notes: Two polypeptides of one protein, co-expressed; residues 906-914 are absent; A selenomethionine form was used for phasing (2.6 Å); the final structure is of native crystals (2.4 Å); copies: 2 + 2
B2: INTS3(1−995) (domain or fragment, human, UniProt Q68E01 1-995, looked up)
chain: MELQKGKGAAAAAAASGAAGGGGGGAGAGAPGGGRLLLSTSLDAKDELEERLERCMSIVTSMTAGVSEREANDALNAYVCKGLPQHEEICLGLFTLILTEPAQAQKCYRDLALVSRDGMNIVLNKINQILMEKYLKLQDTCRTQLVWLVRELVKSGVLGADGVCMTFMKQIAGGGDVTAKNIWLAESVLDILTEQREWVLKSSILIAMAVYTYLRLIVDHHGTAQLQALRQKEVDFCISLLRERFMECLMIGRDLVRLLQNVARIPEFELLWKDIIHNPQALSPQFTGILQLLQSRTSRKFLACRLTPDMETKLLFMTSRVRFGQQKRYQDWFQRQYLSTPDSQSLRCDLIRYICGVVHPSNEVLSSDILPRWAIIGWLLTTCTSNVAASNAKLALFYDWLFFSPDKDSIMNIEPAILVMHHSMKPHPAITATLLDFMCRIIPNFYPPLEGHVRQGVFSSLNHIVEKRVLAHLAPLFDNPKLDKELRAMLREKFPEFCSSPSPPVEVKIEEPVSMEMDNHMSDKDESCYDNAEAAFSDDEEDLNSKGKKREFRFHPIKETVVEEPVDITPYLDQLDESLRDKVLQLQKGSDTEAQCEVMQEIVDQVLEEDFDSEQLSVLASCLQELFKAHFRGEVLPEEITEESLEESVGKPLYLIFRNLCQMQEDNSSFSLLLDLLSELYQKQPKIGYHLLYYLRASKAAAGKMNLYESFAQATQLGDLHTCLMMDMKACQEDDVRLLCHLTPSIYTEFPDETLRSGELLNMIVAVIDSAQLQELVCHVMMGNLVMFRKDSVLNILIQSLDWETFEQYCAWQLFLAHNIPLETIIPILQHLKYKEHPEALSCLLLQLRREKPSEEMVKMVLSRPCHPDDQFTTSILRHWCMKHDELLAEHIKSLLIKNNSLPRKRQSLRSSSSKLAQLTLEQILEHLDNLRLNLTNTKQNFFSQTPILQALQHVQASCDEAHKMKFSDLFSLAEEYEDSSTKPPKSRRKAALSS
notes: The complex with hSSB1 was held on an NTA chip for SPR with DNA, so one of its chains may carry a His tag; source: co-expressed with hSSB1 and purified
B3: C-terminus of INTS6 (INTS6c), residues 800–887 (domain or fragment, human, UniProt Q9UL03 800-887, looked up)
chain: MHCRSHEEVNTELKAQIMKEIRKPGRKYERIFTLLKHVQGSLQTRLIFLQNVIKEASRFKKRMLIEQLENFLDEIHRRANQINHINSN
notes: integrator complex subunit 6 (INTS6), human, residues 800-887; Cloned into pGEX-6p-1

In series [1] the target is T1, hSSB1 (human, UniProt Q9BQ15 1-211). The series is described as follows: EMSA; comparable affinities among the three; EMSA: 50 mM NaCl, 20 mM HEPES pH 7.5, 1 mM MgCl2, 0.5 mM EDTA, 0.2 mM DTT, on ice 1 h; SPR: 200 mM NaCl, 40 mM HEPES pH 7.5, 50 uM EDTA, 25 C. Particulars: protein: recombinant.
For series [2], the target named is T2, INTS3(1-500) (INTS3N);hSSB1 (human;human, UniProt Q68E01-2;Q9BQ15 1-500;1-211, |). The series is described as above. The conditions noted are these: protein: recombinant;recombinant; tags: ;; copies: 1;1.
Series [3] addresses T3, INTS3(1-995);hSSB1 (human;human, UniProt Q68E01-2;Q9BQ15 1-995;1-211, |). The description is as above. The conditions noted are these: protein: recombinant;recombinant; tags: ;; chain copies: 2;2.
Series [4] deals with the molecule itself. The series is described as follows: crystal structure; INTS3c/INTS6c complex from purified parts, crystallised in 1.7 M ammonium citrate tribasic pH 7.0, 4% v/v pentaerythritol ethoxylate; SAD on selenomethionine INTS3c, native data to 2.4 Å.
Series [5] deals with the molecule itself. In words: SEC; analytical size-exclusion chromatography of co-expressed and purified INTS3-hSSB1 complexes (Supplementary Fig. S2). On the technique in general: In gel filtration, larger molecules generally elute earlier.
The target of series [6] is T1, hSSB1. The series is described as follows: SPR; hSSB1 immobilized; comparable to INTS3(1-500)/hSSB1; KD only in Fig. S5a; EMSA: 50 mM NaCl, 20 mM HEPES pH 7.5, 1 mM MgCl2, 0.5 mM EDTA, 0.2 mM DTT, on ice 1 h; SPR: 200 mM NaCl, 40 mM HEPES pH 7.5, 50 uM EDTA, 25 C. Particulars: protein: recombinant. A general note: SPR reads the build-up and loss of mass on a sensor chip optically.

In series [7] the target is T3, INTS3(1-995);hSSB1. The series is described as follows: SPR; KD only in Fig. S5c; EMSA: 50 mM NaCl, 20 mM HEPES pH 7.5, 1 mM MgCl2, 0.5 mM EDTA, 0.2 mM DTT, on ice 1 h; SPR: 200 mM NaCl, 40 mM HEPES pH 7.5, 50 uM EDTA, 25 C. The conditions noted are these: protein: recombinant;recombinant; tags: ;; chain copies: 2;2.
Series [8] addresses T2, INTS3(1-500) (INTS3N);hSSB1. The series is described as follows: SPR; comparable to hSSB1 alone; KD only in Fig. S5b; EMSA: 50 mM NaCl, 20 mM HEPES pH 7.5, 1 mM MgCl2, 0.5 mM EDTA, 0.2 mM DTT, on ice 1 h; SPR: 200 mM NaCl, 40 mM HEPES pH 7.5, 50 uM EDTA, 25 C. Particulars: protein: recombinant;recombinant; tags: ;; copies: 1;1.
Another series addresses INTS3 full length;hSSB1 (human;human, UniProt Q68E01-2;Q9BQ15 1-1042;1-211, |). The series is described as follows: SPR; KD only in Fig. S5d; EMSA: 50 mM NaCl, 20 mM HEPES pH 7.5, 1 mM MgCl2, 0.5 mM EDTA, 0.2 mM DTT, on ice 1 h; SPR: 200 mM NaCl, 40 mM HEPES pH 7.5, 50 uM EDTA, 25 C. Particulars: protein: recombinant;recombinant; tags: ;; copies: 1;1.
In a further series the target is INTS3c (human, UniProt Q68E01-2;Q68E01-2 560-905;915-995). In words: EMSA; INTS3c alone unable to bind ssDNA; method inferred; EMSA: 50 mM NaCl, 20 mM HEPES pH 7.5, 1 mM MgCl2, 0.5 mM EDTA, 0.2 mM DTT, on ice 1 h; SPR: 200 mM NaCl, 40 mM HEPES pH 7.5, 50 uM EDTA, 25 C. Particulars: protein: recombinant; tags: GST removed. (In EMSA bound probe runs differently from free probe, usually more slowly.)

The target of series [9] is T3, INTS3(1-995);hSSB1. The series is described as follows: EMSA; 1 mM MgCl2; EMSA: 50 mM NaCl, 20 mM HEPES pH 7.5, 1 mM MgCl2, 0.5 mM EDTA, 0.2 mM DTT, on ice 1 h; SPR: 200 mM NaCl, 40 mM HEPES pH 7.5, 50 uM EDTA, 25 C. Particulars: protein: recombinant;recombinant; tags: ;; chain copies: 2;2; label: 6-FAM (printed 6'-carboxy-fluorescein).
Series [10] deals with INTS3(1-995);hSSB1;INTS6c (human;human;human, UniProt Q68E01-2;Q9BQ15;Q9UL03 1-995;1-211;800-887, ||). In words: EMSA; 1 mM MgCl2; INTS6c 1:1, no effect on binding; EMSA: 50 mM NaCl, 20 mM HEPES pH 7.5, 1 mM MgCl2, 0.5 mM EDTA, 0.2 mM DTT, on ice 1 h; SPR: 200 mM NaCl, 40 mM HEPES pH 7.5, 50 uM EDTA, 25 C. Particulars: protein: recombinant;recombinant;recombinant; tags: ;;GST removed; chain copies: 2;2;2; label: 6-FAM (printed 6'-carboxy-fluorescein).

The target of series [11] is B1. The series is described as follows: crystal structure; INTS3c/INTS6c complex from purified parts, crystallised in 1.7 M ammonium citrate tribasic pH 7.0, 4% v/v pentaerythritol ethoxylate; SAD on selenomethionine INTS3c, native data to 2.4 Å. Particulars: both partners purified.

T3 sequence (Q9BQ15 whole entry, one chain of several): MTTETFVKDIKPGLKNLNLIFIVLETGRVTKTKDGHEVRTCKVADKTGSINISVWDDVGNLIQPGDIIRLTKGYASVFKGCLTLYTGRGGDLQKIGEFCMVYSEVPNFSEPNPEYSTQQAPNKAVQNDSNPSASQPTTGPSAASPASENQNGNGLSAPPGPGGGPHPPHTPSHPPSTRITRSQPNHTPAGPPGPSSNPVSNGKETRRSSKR
T1 sequence (Q9BQ15 whole entry): as the sequence (Q9BQ15 whole entry, one chain of several) above
T2 sequence (Q9BQ15 whole entry, one chain of several): as above
Sequence of INTS3c (Q68E01 916-996, chain 2 of 2, one chain of several): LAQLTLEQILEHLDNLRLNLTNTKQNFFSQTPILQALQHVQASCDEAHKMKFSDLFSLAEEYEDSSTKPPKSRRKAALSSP
Sequence of INTS3 full length;hSSB1 (Q9BQ15 whole entry, one chain of several): as the sequence (Q9BQ15 whole entry, one chain of several) above
Sequence of INTS3(1-995);hSSB1;INTS6c (Q9BQ15 whole entry, one chain of several): as above

As for TTTTTTTTTTTT (ssDNA) [dT12], the binding result (in the series with hSSB1 [1]; in [2]; in the series with INTS3(1-995);hSSB1 [3]) was “binds” each time.

In the case of B1, the “stoichiometry N” value in series [4] worked out at 2.

B2: in series [5], the “stoichiometry N” value is 2.

For TTTTTTTTTTTTTTTTTTTTTTTTTTTTTTTTTTTTTTTTTTTTTTTT (ssDNA) [dT48], the binding result (with hSSB1 [6]; in the series with INTS3(1-995);hSSB1 [7]; in series [8]; in the series with INTS3 full length;hSSB1) was “binds” each time.

Turning to TTTTTTTTTTTTTTTTTTTTTTTTTTTTTTTTTTTTTTTTTTTTTTTT (ssDNA) [ssDNA of Fig. S4d], the binding result with INTS3c is recorded as “no binding”.

In the case of TTTTTTTTTTTTTTTTTTTTTTTTTTTTTTTTTTTTTTTTTTTTTTTT (ssDNA) [dT48 (FAM)], the binding result (with INTS3(1-995);hSSB1 [9]; in series [10]) was “binds” each time.

As to B3, in series [11], the “stoichiometry N” value is 2 INTS3c:INTS6c.

For the origin of these results see publication PMC8368002, “Crystal structure of the INTS3/INTS6 complex reveals the functional importance of INTS3 dimerization in DSB repair” (Cell Discovery, 2020).
